Data published in patent US20250019435A1 (ALBERT EINSTEIN COLLEGE OF MEDICINE, published 2025).

B1: Y298F (receptor)
receptor chain: HEGGQDKPLLSAWPSAVVPRGGHVTLLCRSRLGFTIFSLYKEDGVPVPELYNKIFWKSILMGPVTPAHAGTYRCRGSHPRSPIEWSAPSNPLVIVVTGLFGKPSLSAQPGPTVRTGENVTLSCSSRSSFDMYHLSREGRAHEPRLPAVPSVNGTFQADFPLGPATHGGTYTCFGSLHDSPYEWSDPSDPLLVSVTGNSSSSSSSPTEPSSKTGIRRHLHILIGTSVAIILFIILFFFLLHCCCSNKKNAAVMDQEPAGDRTVNREDSDDQDPQEVTFAQLDHCVFTQTKITSPSQRPKTPPTDTTMYMELPNAKPRSLSPAHKHHSQALRGSSRETTALSQNRVASSHVPAAGI
notes: also called KIR2DL5 Y298F (ITIM mutant) on transduced primary NK cells
B2: anti-KIR2DL5 mAb clone B7B23 (antibody, V domains shown)
VH: QVQLQQSGAELVRPGVSVKISCKGSGYTFTDYTMHWVKQSHAKSLEWIGVISPYYGDASYNQKFKGKATMTVDKSSSTAYMELARLTSEDSAIYYCARGLLRGFAYWGQGTLVTVS
VL: DIVMTQSPSSKDMSVGQKVTMRCKSSKSLLNSSNQKKYLAWYQQKPGQSPKLLVYFASIRESGVPDRFIGSGSGTDFTLTISSVQVEDLADYFCQQHYSTPWTFGGG
notes: also called B7B23 (IgG1, κ)

Legend:
[1] = target: T1, PVR expressed on transduced cells (PVR-YFP) (UniProt P15151 21-417); test: confocal imaging of conjugates of transduced primary NK cells with PVR-YFP/Raji cells
T1 construct: whole, on cells; On NIH 3T3 or Raji cells; also called PVR/3T3; PVR-YFP/3T3; not shown: YFP ('PVR-YFP ... fusion protein')
T1 sequence (looked up): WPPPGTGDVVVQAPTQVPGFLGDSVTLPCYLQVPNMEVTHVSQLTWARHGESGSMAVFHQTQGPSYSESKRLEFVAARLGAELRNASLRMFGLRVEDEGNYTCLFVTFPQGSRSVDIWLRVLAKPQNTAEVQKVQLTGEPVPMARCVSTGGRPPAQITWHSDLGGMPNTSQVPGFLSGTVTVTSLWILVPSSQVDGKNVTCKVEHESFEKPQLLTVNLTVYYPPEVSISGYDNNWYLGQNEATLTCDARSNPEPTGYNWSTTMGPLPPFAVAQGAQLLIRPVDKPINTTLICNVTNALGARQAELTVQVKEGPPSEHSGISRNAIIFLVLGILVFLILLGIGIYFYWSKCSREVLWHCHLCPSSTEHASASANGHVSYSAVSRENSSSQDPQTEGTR
Description: (§1) The KIR2DL5⁻ primary NK cells were transduced with WT KIR2DL5 or the indicated mutants, and then examined for protein expression with F8B30 (open) or mIgG1 (shaded). NC, negative control. Data are representative of 2 independent experiments. (B and C) Transduced primary NK cells were treated with (+) or without (−) pervanadate (VO₄) for 5 minutes. Cell lysates were immunoprecipitated with anti-KIR2DL5 antibodies. Phospho-tyrosine (4G10), SHP-1, SHP-2, and total KIR2DL5 were detected by immunoblots (B). Quantification of p-Tyr, SHP-1, and SHP-2 association with WT or mutant KIR2DL5 in VO₄-treated NK cells (C). WCL, whole-cell lysates. (D) Representative imaging of cell conjugates acquired upon the indicated transduced primary NK and PVR/Raji cell contact followed by staining with anti-KIR2DL5 mAb and DAPI. Scale bars: […]. (E) Lysis of scramble control or PVR^KO A427 (top) and Jurkat (bottom) by WT or mutant KIR2DL5-transduced primary NK cells at the indicated E/T ratios. Data are mean for duplicate measurements and representative of 3 independent experiments with 3 different donors. In A, and B, data are representative of 3 independent experiments. *P<0.05, **P<0.01, ***P<0.001, ****P<0.0001, by 1-way ANOVA (C), or paired Student's t test (D).
NK-Raji conjugation assay. […] Cell mixtures were then loaded onto poly-L-lysine-precoated slides and fixed with 4% formaldehyde at RT for 15 minutes. After blocking with 5% normal goat serum at RT for 1 hour, cells were stained with 20 µg/mL anti-KIR2DL5 antibodies (a mixture of 8 homemade clones) at 4° C. overnight and then with goat anti-mIgG (H+L) Alexa Flour 647 (Invitrogen) at RT for 2 hours. The cells were permeabilized by 0.1% Triton X-100 at RT for 15 minutes and stained with Alexa Flour Plus 405 Phalloidin (Life Technologies) for 1 hour at RT. The slides were then mounted by Gold Antifade Mountant without DAPI (Life Technologies). The mean pixel intensity of synapse and non-synapse was respectively measured and statistically analyzed. Images were acquired by Leica SP8 confocal microscope and processed by ImageJ (NIH).

[2] = target: T2, SHP-2 (human, UniProt Q06124 2-593); test: co-immunoprecipitation with anti-KIR2DL5 from transduced primary NK cells with or without pervanadate, immunoblot
T2 sequence (looked up): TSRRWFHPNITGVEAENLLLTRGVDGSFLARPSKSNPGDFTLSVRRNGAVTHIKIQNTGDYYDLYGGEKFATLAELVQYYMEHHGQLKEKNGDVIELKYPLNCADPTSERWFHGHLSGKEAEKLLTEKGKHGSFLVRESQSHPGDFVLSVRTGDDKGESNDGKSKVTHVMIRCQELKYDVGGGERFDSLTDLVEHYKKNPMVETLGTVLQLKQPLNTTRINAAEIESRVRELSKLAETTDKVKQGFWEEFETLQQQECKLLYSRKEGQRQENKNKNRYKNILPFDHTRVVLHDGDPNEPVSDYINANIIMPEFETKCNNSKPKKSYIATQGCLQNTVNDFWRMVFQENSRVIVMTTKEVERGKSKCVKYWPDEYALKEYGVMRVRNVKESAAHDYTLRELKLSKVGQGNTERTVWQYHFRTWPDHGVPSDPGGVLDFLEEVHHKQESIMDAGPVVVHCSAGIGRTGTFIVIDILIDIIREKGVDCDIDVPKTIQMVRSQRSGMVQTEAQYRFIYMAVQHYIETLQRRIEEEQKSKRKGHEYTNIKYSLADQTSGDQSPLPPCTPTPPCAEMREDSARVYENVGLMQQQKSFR
Description: as §1, with “FIG. 12A-12E: KIR2DL5 ITIM and ITSM mediated NK cell inhibition and suppressed downstream signaling. (A) Tyrosine (Y) in ITIM and ITSM of KIR2DL5 was mutated to phenylalanine (F). The” for “The”
Coimmunoprecipitation and immunoblotting. NK92 cells or primary NK cells pretreated with or without 1 mM pervanadate (New England BioLabs) were lysed in Pierce immunoprecipitation lysis buffer supplemented with protease and phosphatase inhibitor cocktail (Thermo Fisher Scientific). Proteins from whole-cell lysis were further incubated with anti-KIR2DL5 antibodies and Dynabeads protein G (Thermo Fisher Scientific) for further immunoprecipitation. […]

[3] = target: T3, D0-deleted KIR2DL5 expressed on 3T3 cells (human, UniProt Q8N109 119-375); test: flow cytometry, transduced 3T3 cells
T3 construct: the signal peptide 1-21 is left out; also called KIR2DL5 dD0; DO-deleted KIR2DL5
Excerpt: (§2) FIG. 15A-15E: Characterization of anti-KIR2DL5 specific monoclonal antibodies. (Related to FIGS. 8A-8D). (A) The protein sequence of KIR2DL5. The extracellular domain of KIR2DL5 was composed of tandem DO-D2 domains. The cytoplasmic tail of KIR2DL5 contained an immunoreceptor tyrosine-based inhibition motif (ITIM) and immunoreceptor tyrosine-based switch motif (ITSM). Domains were predicted and annotated based on UniProtKB (Q8N109). (B) The specificity of anti-KIR2DL5 mAbs. 3T3 cells transduced with indicated KIR family members were stained with 5 μg/ml of indicated anti-KIR2DL5 mAbs (open) or mIgG1 (shaded). (C, D) The affinity of anti-KIR2DL5 mAbs. C: Kinetic binding curves for F8B30 and B19C11. D: Data were acquired from kinetic binding curves detected by the Octet Red96 BLI instrument for indicated clones. (E) 3T3 cells transduced with DO-deleted (KIR2DL5 dD0) or D2-deleted KIR2DL5 (KIR2DL5 dD2) were stained with 5 μg/ml of indicated anti-KIR2DL5 mAbs. In B-E, data are representative of three independent experiments.

[4] = target: T4, D2-deleted KIR2DL5 expressed on 3T3 cells (human, UniProt Q8N109 22-375); test: flow cytometry, transduced 3T3 cells
T4 construct: also called KIR2DL5 dD2
Excerpt: as §2

[5] = target: T5, KIR2DL5-Ig fusion protein (KIR2DL5 extracellular domain fused to human IgG1 Fc) (human, UniProt Q8N109 22-240); test: BLI, Octet RED96; KIR2DL5-Ig captured on anti-human Fc biosensors, mAb in solution; global 1:1 fit
T5 construct: A D0-only fusion (H22-A128) also exists; also called KIR2DL5-human Ig fusion protein; KIR2DL5 DO-D2-Ig; not shown: human IgG1 Fc tag
Description: Biolayer interferometry. The affinities of anti-KIR2DL5 mAbs were analyzed by biolayer interferometry using an Octet RED96 system (ForteBio, Pall LLC). Briefly, anti-human Fc capture biosensors (ForteBio, Pall LLC) were preloaded with KIR2DL5-Ig and then dipped into a solution containing mAb at 2-fold serial dilutions (from 200 to 1.5 μg/mL). Data were analyzed using Forte Pall (Port Washington, New York, USA) software 9.0. The global data fitting to a 1:1 binding model was used to estimate values for the Kₒₙ (association rate constant), Koff (dissociation rate constant), and KD (equilibrium dissociation constant).

Binder | binding result [1] | binding result [2] | binding result [3] | binding result [4] | Kd [5] | koff [5] | kon [5]
B1 | binds | no binding |  |  |  |  | 
B2 |  |  | no binding (tested: 5 µg/ml) | no binding (tested: 5 µg/ml) | 41.3 pM | 6.96e-05 s⁻¹ | 1.69e+06 M⁻¹ s⁻¹
